The test system of assay [1] is A. baumannii HUMC1. The assay is described as follows: Effects of antibody on colistin MIC. The format is cell-based. The method, then:
The minimum inhibitory concentration (MIC) of colistin for A. baumannii HUMC1 was determined in congruence with standard CLSI methodologies. In brief, A. baumannii HUMC1 was passaged in Mueller Hinton II (MH-II) Broth for 3 hr at 37° C. with shaking then diluting to 5×10^5 CFUs/mL. Colistin was serially diluted across rows of a 96-well plate with 0.1, 1, or 10 μg/mL C8 MAb, which was incubated at 37° C. for 24 hr. The MIC value was read as the lowest concentration that prevented visible growth of bacteria.

The test system of assay [2] is A. baumannii HUMC1. Put plainly: Lethal bloodstream (i.v. tail-vein) infection model, survival. It is filed as in vivo, mice. To be noted: i.v. infection; treated i.p. at 1 hr post-infection; C8 150 μg, colistin 0.0125 mg/kg; FIG. 7D.
Assay [3] has as its target T1, outer membrane protein A (OmpA) of A. baumannii (A. baumannii, UniProt Q6RYW5 20-356).
T1 construct: also called whole OmpA
T1 sequence: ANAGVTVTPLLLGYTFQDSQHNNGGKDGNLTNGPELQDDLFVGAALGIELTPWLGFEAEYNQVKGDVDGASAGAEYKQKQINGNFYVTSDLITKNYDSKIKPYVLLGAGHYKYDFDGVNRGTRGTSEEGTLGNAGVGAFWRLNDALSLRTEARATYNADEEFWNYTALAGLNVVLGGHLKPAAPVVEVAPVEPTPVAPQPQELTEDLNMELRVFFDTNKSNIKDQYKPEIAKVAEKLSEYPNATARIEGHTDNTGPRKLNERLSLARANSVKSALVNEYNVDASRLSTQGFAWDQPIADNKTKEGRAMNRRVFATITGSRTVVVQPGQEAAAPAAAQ
The assay is described as follows: ELISA with whole OmpA as target (data not shown). (An ELISA detects its analyte on a solid surface through an enzyme-linked reagent.)

Assay [4] concerns the target T2, DHFR-3Loop fusion protein (mouse (DHFR part)); A. baumannii (OmpA …).
T2 construct: also called DHFR-3 Loop protein; recombinant DHFR-3Loop protein
T2 chain: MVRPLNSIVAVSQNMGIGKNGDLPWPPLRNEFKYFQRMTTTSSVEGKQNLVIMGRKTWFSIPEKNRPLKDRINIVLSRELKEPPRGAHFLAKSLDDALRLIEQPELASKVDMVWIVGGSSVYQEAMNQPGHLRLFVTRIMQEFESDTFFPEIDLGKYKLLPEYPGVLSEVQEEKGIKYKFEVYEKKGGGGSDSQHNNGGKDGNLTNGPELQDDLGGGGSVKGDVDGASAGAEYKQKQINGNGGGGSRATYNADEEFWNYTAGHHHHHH
The assay is described as follows: ELISA with DHFR-3Loop as target (data not shown).

The subject of assay [5] is A. baumannii cell surface. Put plainly: Flow cytometry binding to A. baumannii cell surface. Conditions: HUMC1 strain. The method, then: Hybridoma pre-clones were selected for subcloning based on bacterial cell surface reactivity by flow cytometry. Briefly, A. baumannii was passaged to log phase, stained with the bacterial dye SYTO BC (LifeTech #B7277), then stained with pre-clone supernatant from 96-well plates at 4° C., rinsed, and counter-stained with CF 647-conjugated goat anti-mouse IgG (Sigma-Aldrich, #SAB4600182). Control samples were stained with mouse IgG1 isotype control mAb (R&D Systems, #MAB002). Percent positivity was determined by flow cytometry.
Hybridoma cell lines were propagated in 96-well flat-bottom plates in DMEM-20%, and supernatants were harvested from wells for initial flow cytometry screening to identify antibodies that bound to intact bacteria. In brief, A. baumannii isolates were passaged to log phase, stained with the bacterial dye SYTO BC (LifeTech #B7277), and incubated for 1 hr with undiluted supernatants collected from 96-well plates at 4° C. Cells were washed and counter-stained with a secondary antibody, CF647-conjugated goat anti-mouse IgG (Sigma-Aldrich, #SAB4600182). Control samples were stained with a mouse IgG1 isotype control MAb (R&D Systems, #MAB002) as a negative control, and mouse polyclonal HUMC1-immune serum as a positive control for bacterial binding. Hybridomas that tested positive for bacterial binding were subcloned by limiting dilution into 96-well plates to ensure clonality, expanded, and retested to confirm bacterial binding.
(A flow cytometer gives signals particle by particle.)

The test system of assay [6] is A. baumannii HUMC1. Put plainly: Lethal bloodstream (i.v. tail-vein) infection model, survival. It is filed as in vivo, mice. To be noted: 2×10^7 HUMC1 i.v.; treated once i.v., approximately 20 μg. The method, then:
To determine if C8 could treat, inhibit and/or prevent A. baumannii induced sepsis, mice were infected i.v. via the tail-vein with 2×10^7 hyper-virulent A. baumannii HUMC1 and were treated once i.v. with either protein-G purified C8 mAb (approximately 10 or 20 μg doses) or an isotype-control antibody in a saline buffer. […] In a second experiment, mice were similarly infected and the C8 MAb was administered once i.v. in saline buffer at a low (5 μg) and very low (0.5 μg) dose.
Male C3HeB/Fe mice (Jackson Labs) between the ages of 7-10 wk were used for all experiments. All animal work was conducted following approval by the Institutional Animal Use and Care Committee at the University of Southern California, in compliance with the recommendations in the Guide for the Care and Use of Laboratory Animals of the National Institutes of Health.
For the bloodstream infection model, mice were infected intravenously via the tail-vein with designated inocula of A. baumannii isolates. An oropharyngeal model of aspiration pneumonia that recapitulates hospital- or ventilator-associated pneumonia (VAP) relevant to ICU populations was used. In brief, mice were sedated with isoflurane, hung by their maxillary incisors, tongues held to prevent swallowing, and 50 μL of bacterial inocula was placed in the trachea to allow inoculation of the organisms into the lungs by reflexive aspiration.

Consider colistin, for which the “MIC of colistin against HUMC1” value in the assay with A. baumannii HUMC1 [1] (colistin alone), with A. baumannii HUMC1 [1] (in the presence of C8 at 0.1 μg/mL), in the assay with A. baumannii HUMC1 [1] (in the presence of C8 at 1 μg/mL) and in the assay on A. baumannii HUMC1 [1] (in the presence of C8 at 10 μg/mL) was 2 µg/mL throughout. In addition, in the assay with A. baumannii HUMC1 [2], the “survival, delayed treatment (monotherapy)” value was “completely ineffective”.

B1: 9.1C8 monoclonal antibody (antibody, V domains shown)
VH: EVQLQQSGPELVKPGASVKISCKASGYSFTGYTMNWVKQSHGKSLEWIGRINPYNGDSFYNQKFKGKATLTVDKSSNIAHMEFLSLTSEDSAVYYCGRSGDGPWFAYWGQGTLVTVSA
VL: LPLSLPVSLGDQASISCRSSQSIVHNNGNTYLEWYLQKPGQSPKLLIYKVSNRFSGVPDRFSGSGSGTDFTLKISRVEAEDLGVYYCFQGSHVPLTFGAGTKLEIKGSRS
notes: also called C8 mAb; C8 MAb
Turning to B1, the binding result in assay [3] and in assay [4] was “no binding” throughout.

B2: X1 monoclonal antibody (antibody, V domains shown)
VH: EVQLQQSGPELVKPGASVKISCKASGYSFTGYFMNWVKQSHGKSLEWIGRINPYNGDTFYNQKFKGKATLTVDKSSSTAHMELRSLTSEDSAVYYCARLNYRGAYWGQGTLVTVSA
VL: LPLSLPVSLGDQASISCRSSQSIVHNNGNTYLEWYLQKPGQSPKLLIYKVSNRFSGVPDRFSGSGSGTDFTLKISRVEAEDLGVYYCFQGSHVPLTFGAGTKLEIKGSRS
notes: also called X1 mAb
In the case of B2, the binding result in assay [3] and in assay [4] was “no binding” throughout.

B3: R2D2: mouse IgM monoclonal antibody from hybridoma R2D2 (ATCC PTA-122178); light chain SEQ ID NO:28, heavy chain SEQ ID NO:29 (antibody, listed as Mus musculus)
heavy: QVQLKQSGPGLVQPSQSLSITCTVSGFSLTSYGVHWVRQSPGKGLEWLGVIWSGGSTDYNAAFISRLSISKDNSKSQVFFKMNSLQANDTAIYYCARRRRSTAMDYWGQGTSVTVSSESQSFPN
light: DIGMTQSXSPQDMSVGPKVTMSSKCRKSLLNSRNQKKYLTSDQQKPGQYTKSLGDFASISESRVTDRFIGSGSGTDLPLGWGILPPLPLADYFCQQHYSTP
modifications: not fully specified; (8)..(8) Xaa can be any naturally occurring amino acid
As for B3, in assay [5], the “binding to the cell surface of A. baumannii by flow cytometry” value is “specifically bound”. The protection against infection entry with A. baumannii HUMC1 [6] is reported as “protective against infection”.

These data come from patent US11306137B2, “Antibody binding agents that bind Acinetobactor and uses thereof” (priority 2015, dated 2022).
